Assay results as given in patent publication US12624075B2, “Immune inducer” (TORAY INDUSTRIES, INC., priority 2015, dated 2026).

Experiments:
Jurkat cells = assay: Cytotoxicity assay (chromium 51 release) of induced HLA-A0201-positive CD8-positive T cells against Jurkat cells; format: cell-based, human; conditions: 5×10^4 T cells with 1×10^3 Jurkat cells, 4 hours; FIG. 4B; higher/lower = SEQ ID NOs: 3 to 19 versus SEQ ID NOs: 75 to 83 and full-length PDS5A protein
Description: Subsequently, the following were examined: whether or not the polypeptides having the amino acid sequences represented by SEQ ID NOs: 3 to 19, which are used in the present invention, are presented on the HLA-A0201 molecules on tumor cells which are HLA-A0201-positive and which express human PDS5A protein; whether or not the CD8-positive T cells stimulated with the polypeptides according to the present invention can damage the tumor cells which are HLA-A0201-positive and which express the human PDS5A protein; and further, whether or not the above described CD8-positive T cells have a markedly higher ability to damage the tumor cells as compared to the CD8-positive T cells stimulated with the known peptides (SEQ ID NOs: 75 to 83) and those stimulated with the PDS5A protein.
Each of the total 10 types of cell lines whose expression of human PDS5A protein has been confirmed, namely: a human glioma (malignant brain tumor) cell line U251 cells; a leukemia cell line Jurkat cells; a liver cancer cell line SK-Hep1; a breast cancer cell line MCF7; a pancreatic cancer cell line Panc1; an ovarian cancer cell line OVCAR3; a renal cancer cell line A498; a colorectal cancer cell line HCT116; a stomach cancer cell line KATO3; and a lung cancer cell line NCI-H522 (purchased from ATCC); were collected into a 50 mL centrifugal tube, in an amount of 1×10^6 cells each. […]

14 types of cancer cells = assay: Direct exposure of cancer cells to the polypeptides (direct killing); format: cell-based, human; conditions: cancer cells exposed to the polypeptides or protein without T cells

B1: full-length PDS5A protein: human PDS5A protein of 1337 amino acid residues, prepared according to Example 5 in WO 2011/027807; Comparative Example (protein, listed as Homo sapiens)
chain: MDFTAQPKPATALCGVVSADGKIAYPPGVKEITDKITTDEMIKRLKMVVKTFMDMDQDSEDEKQQYLPLALHLASEFFLRNPNKDVRLLVACCLADIFRIYAPEAPYTSHDKLKDIFLFITRQLKGLEDTKSPQFNRYFYLLENLAWVKSYNICFELEDCNEIFIQLFRTLFSVINNSHNKKVQMHMLDLMSSIIMEGDGVTQELLDSILINLIPAHKNLNKQSFDLAKVLLKRTVQTIEACIANFFNQVLVLGRSSVSDLSEHVFDLIQELFAIDPHLLLSVMPQLEFKLKSNDGEERLAVVRLLAKLFGSKDSDLATQNRPLWQCFLGRFNDIHVPVRLESVKFASHCLMNHPDLAKDLTEYLKVRSHDPEEAIRHDVIVTIITAAKRDLALVNDQLLGFVRERTLDKRWRVRKEAMMGLAQLYKKYCLHGEAGKEAAEKVSWIKDKLLHIYYQNSIDDKLLVEKIFAQYLVPHNLETEERMKCLYYLYASLDPNAVKALNEMWKCQNMLRSHVRELLDLHKQPTSEANCSAMFGKLMTIAKNLPDPGKAQDFVKKFNQVLGDDEKLRSQLELLISPTCSCKQADICVREIARKLANPKQPTNPFLEMVKFLLERIAPVHIDSEAISALVKLMNKSIEGTADDEEEGVSPDTAIRSGLELLKVLSFTHPTSFHSAETYESLLQCLRMEDDKVAEAAIQIFRNTGHKIETDLPQIRSTLIPILHQKAKRGTPHQAKQAVHCIHAIFTNKEVQLAQIFEPLSRSLNADVPEQLITPLVSLGHISMLAPDQFASPMKSVVANFIVKDLLMNDRSTGEKNGKLWSPDEEVSPEVLAKVQAIKLLVRWLLGMKNNQSKSANSTLRLLSAMLVSEGDLTEQKRISKSDMSRLRLAAGSAIMKLAQEPCYHEIITPEQFQLCALVINDECYQVRQIFAQKLHKALVKLLLPLEYMAIFALCAKDPVKERRAHARQCLLKNISIRREYIKQNPMATEKLLSLLPEYVVPYMIHLLAHDPDFTRSQDVDQLRDIKECLWFMLEVLMTKNENNSHAFMKKMAENIKLTRDAQSPDESKTNEKLYTVCDVALCVINSKSALCNADSPKDPVLPMKFFTQPEKDFCNDKSYISEETRVLLLTGKPKPAGVLGAVNKPLSATGRKPYVRSTGTETGSNINVNSELNPSTGNRSREQSSEAAETGVSENEENPVRIISVTPVKNIDPVKNKEINSDQATQGNISSDRGKKRTVTAAGAENIQQKTDEKVDESGPPAPSKPRRGRRPKSESQGNATKNDDLNKPINKGRKRAAVGQESPGGLEAGNAKAPKLQDLAKKAAPAERQIDLQR
- cytotoxic activity (Jurkat cells): markedly lower cytotoxic activity
- activity to directly kill the cancer cells (14 types of cancer cells): no cancer cells were killed at all
